Measurements as given in PMC11098746 (2024).
No end group written: not given here.

Each binder was assayed against Circumsporozoite protein (CSP) (Plasmodium falciparum (isolate 3D7), UniProt Q7K740) (assay: AVEXIS screen signal:noise (double-corrected)).
Chain of Circumsporozoite protein (CSP) (Q7K740 19-374): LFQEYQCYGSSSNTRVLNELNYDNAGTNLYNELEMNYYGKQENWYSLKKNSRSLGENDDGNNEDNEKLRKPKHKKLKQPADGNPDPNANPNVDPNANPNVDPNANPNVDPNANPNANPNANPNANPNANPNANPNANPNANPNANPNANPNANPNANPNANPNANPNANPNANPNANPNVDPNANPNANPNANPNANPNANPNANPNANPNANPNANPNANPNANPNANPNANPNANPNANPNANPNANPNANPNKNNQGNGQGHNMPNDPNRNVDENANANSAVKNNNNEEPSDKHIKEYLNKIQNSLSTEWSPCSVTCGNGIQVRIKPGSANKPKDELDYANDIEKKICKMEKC

Row | Binder | binding score
1 | ADP329 (protein, bait human Fc-tagged dimer) MAPPGSSTVFLLALTIIASTWALTPTHYLTKHDVERLKASLDRPFTNLESAFYSIVGLSSLGAQVPDAKKACTYIRSNLDPSNVDSLFYAAQASQALSGCEISISNETKDLLLAAVSEDSSVTQIYHAVAALSGFGLPLASQEALSALTARLSKEETVLATVQALQTASHLSQQADLRSIVEEIEDLVARLDELGGVYLQFEEGLETTALFVAATYKLMDHVGTEPSIKEDQVIQLMNAIFSKKNFESLSEAFSVASAAAVLSHNRYHVPVVVVPEGSASDTHEQAILRLQVTNVLSQPLTQATVKLEHAKSVASRATVLQKTSFTPVGDVFELNFMNVKFSSGYYDFLVEVEGDNRYIANTVELRVKISTEVGITNVDLSTVDKDQSIAPKTTRVTYPAKAKGTFIADSHQNFALFFQLVDVNTGAELTPHQTFVRLHNQKTGQEVVFVAEPDNKNVYKFELDTSERKIEFDSASGTYTLYLIIGDATLKNPILWNVADVVIKFPEEEAPSTVLSQNLFTPKQEIQHLFREPEKRPPTV | 0.882
2 | ADP287 (protein, also: human Fc-tagged dimer) MANPGLGLLLALGLPFLLARWGRAWGQIQTTSANENSTVLPSSTSSSSDGNLRPEAITA | 1.47
3 | ADP102 (protein, bait human Fc-tagged dimer) MARGAALALLLFGLLGVLVAAPDGGFDLSDALPDNENKKPTAIPKKPSAGDDFDLGDAVVDGENDDPRPPNPPKPMPNPNPNHPSSSGSFSDADLADGVSGGEGKGGSDGGGSHRKEGEEADAP | 0.919
4 | ADP366 (protein, bait human Fc-tagged dimer) MESKGASSCRLLFCLLISATVFRPGLGWYTVNSAYGDTIIIPCRLDVPQNLMFGKWKYEKPDGSPVFIAFRSSTKKSVQYDDVPEYKDRLNLSENYTLSISNARISDEKRFVCMLVTEDNVFEAPTIVKVFKQPSKPEIVSKALFLETEQLKKLGDCISEDSYPDGNITWYRNGKVLHPLEGAVVIIFKKEMDPVTQLYTMTSTLEYKTTKADIQMPFTCSVTYYGPSGQKTIHSEQAVFDIYYPTEQVTIQVLPPKNAIKEGDNITLKCLGNGNPPPEEFLFYLPGQPEGIRSSNTYTLTDVRRNATGDYKCSLIDKKSMIASTAITVHYLDLSLNPSGEVTRQIGDALPVSCTISASRNATVVWMKDNIRLRSSPSFSSLHYQDAGNYVCETALQEVEGLKKRESLTLIVEGKPQIKMTKKTDPSGLSKTIICHVEGFPKPAIQWTITGSGSVINQTEESPYINGRYYSKIIISPEENVTLTCTAENQLERTVNSLNVSAISIPEHDEADEISDENREKVNDQAK | 3.25
5 | ADP390 (protein, bait human Fc-tagged dimer) GTDDATADSRKTYTLTDYLKNTYRLKLYSLRWISDHEYLYKQENNILVFNAEYGNSSVFLENSTFDEFGHSINDYSISPDGQFILLEYNYVKQWRHSYTASYDIYDLNKRQLITEERIPNNTQWVTWSPVGHKLAYVWNNDIYVKIEPNLPSYRITWTGKEDIIYNGITDWVYEEEVFSAYSALWWSPNGTFLAYAQFNDTEVPLIEYSFYSDESLQYPKTVRVPYPKAGAVNPTVKFFVVNTDSLSSVTNATSIQITAPASMLIGDHYLCDVTWATQERISLQWLRRIQNYSVMDICDYDESSGRWNCLVARQHIEMSTTGWVGRFRPSEPHFTLDGNSFYKIISNEEGYRHICYFQIDKKDCTFITKGTWEVIGIEALTSDYLYYISNEYKGMPGGRNLYKIQLSDYTKVTCLSCELNPERCQYYSVSFSKEAKYYQLRCSGPGLPLYTLHSSVNDKGLRVLEDNSALDKMLQNVQMPSKKLDFIILNETKFWYQMILPPHFDKSKKYPLLLDVYAGPCSQKADTVFRLNWATYLASTENIIVASFDGRGSGYQGDKIMHAINRRLGTFEVEDQIEAARQFSKMGFVDNKRIAIWGWSYGGYVTSMVLGSGSGVFKCGIAVAPVSRWEYYDSVYTERYMGLPTPEDNLDHYRNSTVMSRAENFKQVEYLLIHGTADDNVHFQQSAQISKALVDVGVDFQAMWYTDEDHGIASSTAHQHIYTHMSHFIKQCFSLP | 0.756
6 | ADP285 (protein, bait human Fc-tagged dimer) LTQGYNNWTNGLYGYSWDMMVHSRSHQHVKITYRDGRTGELGYLNPGVFTQSRRWKDHADMLKQYATCLSRLLPKYNVTEPQIYFDIWVSINDRFQQRIFDPRVDIVQAAWSPFQRTSWVQPLLMDLSPWRAKLQEIKSSLDNHTEVVFIADFPGLHLENFVSEDLGNTSIQLLQGEVTVELVAEQKNQTLREGEKMQLPAGEYHKVYTTSPSPSCYMYVYVNTTELALEQDLAYLQELKEKVENGSETGPLPPELQPLLEGEVKGGPEPTPLVQTFLRRQQRLQEIERRRNTPFHERFFRFLLRKLYVFRRSFLMTCISLRNLILGRPSLEQLAQEVTYANLRPFEAVGELNPSNTDSSHSNPPESNPDPVHSEF | 0.774
7 | ADP097 (protein, bait human Fc-tagged dimer) SPPRKREEAAAVPAAAPDDLALLKNLRSEEQKKKNRKKLSEKPKPNGRTVEVAEGEAVRTPQSVTAKQPPEIDKKNEKSKKNKKKSKSDAKAVQNSSRHDGKEVDEGAWETKISHREKRQQRKRDKVLTDSGSLDSTIPGIENTITVTTEQLTTASFPVGSKKNKGDSHLNVQVSNFKSGKGDSTLQVSSGLNENLTVNGGGWNEKSVKLSSQISAGEEKWNSVSPASAGKRKTEPSAWSQDTGDANTNGKDWGRSWSDRSIFSGIGSTAEPVSQSTTSDYQWDVSRNQPYIDDEWSGLNGLSSADPNSDWNAPAEEWGNWVDEERASLLKSQEPIPDDQKVSDDDKEKGEGALPTGKSKKKKKKKKKQGEDNSTAQDTEELEKEIREDLPVNTSKTRPKQEKAFSLKTISTSDPAEVLVKNSQPIKTLPPATSTEPSVILSKSDSDKSSSQVPPILQETDKSKSNTKQNSVPPSQTKSETSWESPKQIKKKKKARRET | 1.17
8 | ADP309 (protein, bait human Fc-tagged dimer) MEAPAAGLFLLLLLGTWAPAPGSASSEAPPLINEDVKRTVDLSSHLAKVTAEVVLAHLGGGSTSRATSFLLALEPELEARLAHLGVQVKGEDEEENNLEVRETKIKGKSGRFFTVKLPVALDPGAKISVIVETVYTHVLHPYPTQITQSEKQFVVFEGNHYFYSPYPTKTQTMRVKLASRNVESYTKLGNPTRSEDLLDYGPFRDVPAYSQDTFKVHYENNSPFLTITSMTRVIEVSHWGNIAVEENVDLKHTGAVLKGPFSRYDYQRQPDSGISSIRSFKTILPAAAQDVYYRDEIGNVSTSHLLILDDSVEMEIRPRFPLFGGWKTHYIVGYNLPSYEYLYNLGDQYALKMRFVDHVFDEQVIDSLTVKIILPEGAKNIEIDSPYEISRAPDELHYTYLDTFGRPVIVAYKKNLVEQHIQDIVVHYTFNKVLMLQE | 1.06
9 | ADP142 (protein, bait human Fc-tagged dimer) MGLGARGAWAALLLGTLQVLALLGAAHESAAMAASANIENSGLPHNSSANSTETLQHVPSDHTNETSNSTVKPPTSVASDSSNTTVTTMKPTAASNTTTPGMVSTNMTSTTLKSTPKTTSVSQNTSQISTSTMTVTHNSSVTSAASSVTITTTMHSEAKKGSKFDTGS | 0.7
10 | ADP148 (protein, bait human Fc-tagged dimer) MASWIGAVILPLLGLLLSLPAGADVKARSCGEVRQAYGAKGFSLADIPYQEIAGEHLRICPQEYTCCTTEMEDKLSQQSKLEFENLVEETSHFVRTTFVSRHKKFDEFFRELLENAEKSLNDMFVRTYGMLYMQNSEVFQDLFTELKRYYTGGNVNLEEMLNDFWARLLERMFQLINPQYHFSEDYLECVSKYTDQLKPFGDVPRKLKIQVTRAFIAARTFVQGLTVGREVANRVSKVSPTPGCIRALMKMLYCPYCRGLPTVRPCNNYCLNVMKGCLANQADLDTEWNLFIDAMLLVAERLEGPFNIESVMDPIDVKISEAIMNMQENSMQVSAKVFQGCGQPKPAPALRSARSAPENFNTRFRPYNPEERPTTAAGTSLDRLVTDIKEKLKLSKKVWSALPYTICKDESVTAGTSNEEECWNGHSKARYLPEIMNDGLTNQINNPEVDVDITRPDTFIRQQIMALRVMTNKLKNAYNGNDVNFQDTSDESSGSGSGSGCMDDVCPTEFEFVTTEAPAVDPDRREVDSS | 0.913
11 | ADP150 (protein, bait human Fc-tagged dimer) MALQLWALTLLGLLGAGASLRPRKLDFFRSEKELNHLAVDEASGVVYLGAVNALYQLDAKLQLEQQVATGPALDNKKCTPPIEASQCHEAEMTDNVNQLLLLDPPRKRLVECGSLFKGICALRALSNISLRLFYEDGSGEKSFVASNDEGVATVGLVSSTGPGGDRVLFVGKGNGPHDNGIIVSTRLLDRTDSREAFEAYTDHATYKAGYLSTNTQQFVAAFEDGPYVFFVFNQQDKHPARNRTLLARMCREDPNYYSYLEMDLQCRDPDIHAAAFGTCLAASVAAPGSGRVLYAVFSRDSRSSGGPGAGLCLFPLDKVHAKMEANRNACYTGTREARDIFYKPFHGDIQCGGHAPGSSKSFPCGSEHLPYPLGSRDGLRGTAVLQRGGLNLTAVTVAAENNHTVAFLGTSDGRILKVYLTPDGTSSEYDSILVEINKRVKRDLVLSGDLGSLYAMTQDKVFRLPVQECLSYPTCTQCRDSQDPYCGWCVVEGRCTRKAECPRAEEASHWLWSRSKSCVAVTSAQPQNMSRRAQGEVQLTVSPLPALSEEDELLCLFGESPPHPARVEGEAVICNSPSSIPVTPPGQDHVAVTIQLLLRRGNIFLTSYQYPFYDCRQAMSLEENLPCISCVSNRWTCQWDLRYHECREASPNPEDGIVRAHMEDSCPQFLGPSPLVIPMNHETDVNFQGKNLDTVKGSSLHVGSDLLKFMEPVTMQESGTFAFRTPKLSHDANETLPLHLYVKSYGKNIDSKLHVTLYNCSFGRSDCSLCRAANPDYRCAWCGGQSRCVYEALCNTTSECPPPVITRIQPETGPLGGGIRITILGSNLGVQAGDIQRISVAGRNCSFQPERYSVSTRIVCVIEAAETPFTGGVEVDVFGKLGRSPPNVQFTFQQPKPLSVEPQQGPQAGGTTLTIHGTHLDTGSQEDVRVTLNGVPCKVTKFGAQLQCVTGPQATRGQMLLEVSYGGSPVPNPGIFFTYRENPVLRAFEPLRSFASGGRSINVTGQGFSLIQRFAMVVIAEPLQSWQPPREAESLQPMTVVGTDYVFHNDTKVVFLSPAVPEEPEAYNLTVLIEMDGHRALLRTEAGAFEYVPDPTFENFTGGVKKQVNKLIHARGTNLNKAMTLQEAEAFVGAERCTMKTLTETDLYCEPPEVQPPPKRRQKRDTTHNLPEFIVKFGSREWVLGRVEYDTRVSDVP | 0.742
12 | ADP313 (protein, bait human Fc-tagged dimer) MAHLHHSCLCFRSWLPAMLAVLLSLAPSASSDISASRPNILLLMADDLGIGDIGCYGNNTMRTPNIDRLAEDGVKLTQHISAASLCTPSRAAFLTGRYPVRSGMVSSIGYRVLQWTGASGGLPTNETTFAKILKEKGYATGLIGKWHLGLNCESASDHCHHPLHHGFDHFYGMPFSLMGDCARWELSEKRVNLEQKLNFLFQVLALVALTLVAGKLTHLIPVSWMPVIWSALSAVLLLASSYFVGALIVHADCFLMRNHTITEQPMCFQRTTPLILQEVASFLKRNKHGPFLLFVSFLHVHIPLITMENFLGKSLHGLYGDNVEEMDWMVGRILDTLDVEGLSNSTLIYFTSDHGGSLENQLGNTQYGGWNGIYKGGKGMGGWEGGIRVPGIFRWPGVLPAGRVIGEPTSLMDVFPTVVRLAGGEVPQDRVIDGQDLLPLLLGTAQHSDHEFLMHYCERFLHAARWHQRDRGTMWKVHFVTPVFQPEGAGACYGRKVCPCFGEKVVHHDPPLLFDLSRDPSETHILTPASEPVFYQVMERVQQAVWEHQRTLSPVPLQLDRLGNIWRPWLQPCCGPFPLCWCLREDDPQ | 0.959
